Paper PMC8017925, “Structural basis for differential recognition of phosphohistidine-containing peptides by 1-pHis and 3-pHis monoclonal antibodies” (Proceedings of the National Academy of Sciences of the …, 2021)
*1 amine or outer side, *2 acyl side, *3 side chain or, on linkers, in order; H or OH if unused. Where no end group is shown, it is not given here. [ ]: non-standard residue; d: D form. The star is where a group is joined. 1‑pHis = 1-phosphohistidine, O=C([C@H](Cc1cncn1P(=O)(O)O[*:3])N[*:1])[*:2]; Biotin = O=C1N[C@H]2[C@H](CS[C@H]2CCCCC(=O)*)N1

Experiment: Stability of 1- and 3-pHis peptides with and without pHis mAbs (BLI read-out)
Assay type: physicochemical
Details: phosphorylated ACLYana, 0-24 h, no pHis mAbs; read-out BLI signal at end of association, normalized to 0 h
Procedure: Next, we examined the ability of these Fabs to recognize phosphorylated substrates using differential scanning fluorimetry (DSF).
Fig. S6. Stability of 1- and 3-pHis peptides in the presence of pHis mAbs. In the BLI experiment, analytes were SC50-3 (A and B) and SC44-8 (C and D) Fabs and ligand was the ACLYana peptide.
Prior to the experiment, the peptide was phosphorylated with phosphoramidate and divided into two sets - set A and set B. The set A peptide was incubated with 1- and 3-pHis mAbs separately for extended periods of time (0 - 24 h) and set B was not incubated with pHis mAbs. The ACLYana-pHis peptide incubated with the mixture of 1-pHis IgGs (A, continuous lines) and 3-pHis IgGs (C, continuous lines) has the higher signal intensity at all time points compared to […]
(discontinuous lines). The BLI signal intensity at the end of association phase was used to compare the rate of hydrolysis with (set A) and without incubation with pHis mAbs (set B). The signal intensities were normalized to the 0 h (B and D). The unphosphorylated peptide was used as a […]
the rate of dephosphorylation. In the absence of pHis mAb incubation, 1-pHis peptide hydrolyzed […]
(1 picture or pasted object on this page, not shown here)

With “1-pHis peptide: 1-pHis isomer of phosphorylated ACLYana peptide (Biotin-AGAG[1‑pHis]AGAG)” the “hydrolysis of pHis peptide in the absence of pHis mAb incubation” value was “faster than 3-pHis peptide”.
